Laboratory results from the DeepSol protein solubility set.

Assay: soluble on expression in E. coli; label from the status in PepcDB or PDB records

Sequence | soluble on expression in E. coli
GQGKLISVKTDVLDLTINTRGGDVEQALLPAYPKELNSTQPFQLLETSPQFIYQAQSGLTGRDGPDNPANGPRPLYNVEKDAYVLAEGQNELQVPMTYTDAAGNTFTKTFVLKRGDYAVNVNYNVQNAGEKPLEISSFGQLKQSITLPPHLDTGSSNFALHTFRGAAYSTPDEKYEKYKFDTIADNENLNISSKGGWVAMLQQYFATAWIPHNDGTNNFYTANLGNGIAAIGYKSQPVLVQPGQTGAMNSTLWVGPEIQDKMAAVAPHLDLTVDHHHHHH | soluble
MAHHHHHHMSDDDDKIYIYSDLFSKNFSDDEKDDSYEREKQVYSGSETQNAENEYSKLRAQNSTILNNYFDNDNIKNVENLKSNDPDQIDLILFPVNKNYYMNLFDGQLIENIHSIKLRKAGFYAIYVENNNNSKWDGIYFGLSRMQVELDYKLITKKNKDGGEYEKRNTSSYDNTESVQNTVGSEKEETENKNEETSNYNSNLNNEINKICKYNLDQTDILLDDSNSERRRNSKFKIKNTNYYDNLMLQNKYTNSILYDDDDDKNNTETYTCTFKTEDQIRVPSQKKKYIYLYNKYDNATLDLNVHTYMSLGMSILCKYSLLYCGKYNHIPRDPYTPFKKPVSILSLDGGGILTISTLLVLNRLEAELRKEIGSDDIKLIDCFDMVCGTSAGGLISLALLREIDLQDVSNMWPSTIKKVFEGNRNIISGIFFEGYDVNNVKDVFLERMGNKFMSSYKKFYCFVTATDVKHKPYKLFLIRNYTHKYNSINAESYDGINKVPLWLAAWATASAPTYLKGPSAEDIKKLGINIKPEIHLVDGALKASNPALIALEECARLNNKNLSTFIKEDLDTLVSIGTGQVPTKLTQSGASSKSASTFEILINSTHLLTRANDTHREVLQRLADRENTYFRFNVPHIGDIEIDSQDVRDFDLISKATQDYLFDEKFYEIKRLAHKLANNYIRSKYL | not soluble
RVARGWGGCGACGGSGIVGQGKGEPSRRRGRAAGRPQSMERGKMAEAESLETAAEHERILREIESTDTACIGPTLRSVYDGEEHGRFMEKLETRIRNHDREIEKMCNFHYQGFVDSITELLKVRGEAQKLKNQVTDTNRKLQHEGKELVIAMEELKQCRLQQRNISATVDKLMLCLPVLEMYSKLRDQMKTKRHYPALKTLEHLEHTYLPQVSHYRFCKVMVDNIPKLREEIKDVSMSDLKDFLESIRKHSDKIGETAMKQAQQQRNLDNIVLQQPRIGSKRKSKKDAYIIFDTEIESTSPKSEQDSGILDVEDEEDDEEVPGAQDLVDFSPVYRCLHIYSVLGARETFENYYRKQRRKQARLVLQPPSNMHETLDGYRKYFNQIVGFFVVEDHILHTTQGLVNRAYIDELWEMALSKTIAALRTHSSYCSDPNLVLDLKNLIVLFADTLQVYGFPVNQLFDMLLEIRDQYSETLLKKWAGIFRNILDSDNYSPIPVTSEEMYKKVVGQFPFQDIELEKQPFPKKFPFSEFVPKVYNQIKEFIYACLKFSEDLHLSSTEVDDMIRKSTNLLLTRTLSNSLQNVIKRKNIGLTELVQIIINTTHLEKSCKYLEEFITNITNVLPETVHTTKLYGTTTFKDARHAAEEEIYTNLNQKIDQFLQLADYDWMTGDLGNKASDYLVDLIAFLRSTFAVFTHLPVSGSCSYFVLYI | soluble
MGSDKIHHHHHHMGNRTRTIAGKDITRSVADALQYISYYHPPDYIRSLSQAYAREQSPAAKNAIGQILLNSRMAAFGRRPICQDTGLVVVFAKVGMETRIKSTISFADLVNEGVRQAYLDPDNPLRASIVADPLAGRVNTRDNTPAVVHVDLVQGNQIEITIAAKGGGSENKARFTTLNPSASVSDWVIDTVSTLGSGWCPPGLISVGIGGSAEKAMLLAKEAMNKPIDMSELIARGPSSAEEALRIELYERINALGIGAQGLGGLTTVVDVKVATYPTHAASKPVALIPQCAANRHLKFTLDGSGPIRVQPPDLCEWPDIGTDELSPAGVRRVNLDALTKEETASWRCGETLLLSGKMLTGRDAAHKRMVELIDAGKPLPFDLQGRVIYYVGPVRAVRDEVVGPAGPTTSSRLDDFTDKVLAETGLFAMVGKAERGRAAIESIVRHKTPYLIAVGGAAYLISKSIKSARLIAFEDLGMEAVYEFEVQDMPVIMAVDVDGNSIHNSGPLEWRKRMAADSIARNIGV | not soluble
MGSDKIHHHHHHMPSVKIGIIGAGSAVFSLRLVSDLCKTPGLSGSTVTLMDIDEERLDAILTIAKKYVEEVGADLKFEKTMNLDDVIIDADFVINTAMVGGHTYLEKVRQIGEKYGYYRGIDAQEFNMVSDYYTFSNYNQLKYFVDIARKIEKLSPKAWYLQAANPIFEGTTLVTRTVPIKAVGFCHGHYGVMEIVEKLGLEEEKVDWQVAGVNHGIWLNRFRYNGGNAYPLLDKWIEEKSKDWKPENPFNDQLSPAAIDMYRFYGVMPIGDTVRNSSWRYHRDLETKKKWYGEPWGGADSEIGWKWYQDTLGKVTEITKKVAKFIKENPSVRLSDLGSVLGKDLSEKQFVLEVEKILDPERKSGEQHIPFIDALLNDNKARFVVNIPNKGIIHGIDDDVVVEVPALVDKNGIHPEKIEPPLPDRVVKYYLRPRIMRMEMALEAFLTGDIRIIKELLYRDPRTKSDEQVEKVIEEILALPENEEMRKHYLKR | not soluble
MAHHHHHHMLLKALKASFEANKRVYESVLLTFKGVDGYDVYNCSVPFSYKGKTHIYGRVEKRDIWAASHVRLFEETGKDEFTAVPELSWELEDPYIAKINNEMIFGGTRVRKNGNAILSYYGYFYRGTPVELNYFTTGPDYMKDIRVVPLQDGRLGVFSRVRTRAEVYVGFSTVDTIDHLTTEVIATAKAIDFIRPGTWGGVNQAYLLSSGKIGCIGHFAYNDTKPSGEPLMVYINISFVFDAETRQLDTEHVIGTKSCYPACPAKLPVLEDCVFASGIVMRSDGKCDLYSGLGDTHEGRITIDYPFHGYGNIVGQMIF | not soluble
MGSDKIHHHHHHMDKELDLAVTCYGKVKPLKYDLVLLPWGATEPHNLHLPYLTDCILSHDIALDAAKLAKTHYGIRCMVMPYVTAGSQNPGQRELDFCIHYRYETQKAILSDLVASLYAQGYRKMVIINGHGGNTFKSMIRDLSLDYPDFLIASSEWFAFIPAKEYFDEPGDHADELETSVMMHYHPELVNLDEAGDGNYKKFASQMLNEKVAWIPRNWQNVSQDTGIGNPKKASAGKGKKYAEAVVAKYALLFEELVHKELY | not soluble
MCESDKLHDEINVIDIKIYPNRFLKPKTTELLLNKICGLEGYVRFLIHGPSLPKKVFYGPGKGHDVNHGDRKSILVNGNGIDLKVMVGEIIITVELDKFNDFMNQLEDILTETLSVEYSLLVGIFTRTTSTISDYLKYGIGFENLIDKRYIGLIDSRARSSESISIIKLEHHHHHH | not soluble
MIVNKPQFDENELGEGTAVQVTSGNPFGRPNYSNNKHDWNAVVVEFSPLMISVAGYNKEEHDRVETMNITIDSIVKEHVTLKKLVVELPKIQCEAGPEND | not soluble
MSLSFTSTIKVVIADDHAILREGLKQILAETEDIEVVADAKNAAEAIKLAGTKGLDVVVLDISLPDRSGIEACNIIKKEHPGVAVLMLSMHREDAYAIRALRAGAVGYLSKQSASDQLVTAIRTVAKGKKYISAEVALALADQVSGGLEKPIHDTLSNREFQTLTMIASGLSVSEIAENLSLSVKTVSMYRARLLEKLNLRHNAELTHYAIKNNLIDEGHHHHHH | soluble
MIVGAGPAGIRAAAALADAGLHPVVIDEGNRAGGQIYRRPPDGFVRTPGQLYGSEAAKARALHAVFDRLTADGRLTHCAGSSVIAVQTGRLHVLGEGGVQVIFYDRLILATGASDRVAPVPGWQSAGVYSLGAAQIALKAQGVALGRRIVLMGSGPLLTLVGAQLIKAGADVAAVLDTSPWRQQMRGLWKLAARPLVALRGLALRARLGGRYHAGVSLEKIEADGQGVTAMRWRDAGGRQRLTPCDTIGMGWHLRAETHLADLAGCAFTYDEQWRQWLPKTDRMGRAGNGVYLAGDGVRLLGADGAEIAGRLAAAACLADLGFPAPTNAADLRELTRLERFAHGLVCAFPWPAAMVRALPDAAIVCRCENVTAGAVRDSVDLGGGEANRVKSLSRLGMGRCQGRYCHLAAVELAAAQSGCTPDAVGRFRGQAPARPAPIGAFLPEGLEHHHHHH | not soluble
MAHHHHHHMTGVASLHRESERSKRKSSGGERNADEADTEGTAGARNAHAKQKQKTVRQGVAVCVWCCGCLPALTARKQNKRERNVCSAPQALVARPHVTAPSARRSSRPLLMRAAGEAHRAVVMSVSVGVRVEQLGGKHTAPLTGRVQKKQLKEGRVEKKRTSTVIAPESKKEKGW | not soluble
MSPAQSKPVESMTVFNTEEVDTKKQPMFFGKPLGVQRYDSYKYPVFDKLTQQQLGYFWRPEEVSLQKDRGDYQQLTPEQKHIFTSNLKYQIMLDSVQGRAPGMAFAPYCSLPELEGCINVWQFMEMIHSRSYTYIIKNVYSDPSEVFDTIIKDTNILQRAESVTKSYDDFVNDAHEYDSGNAWKFAREGHPAGTLDRRELKRKLYRAIANVNILEGIRFYVSFACSFAFGENKLMEGSAKILSLISRDESQHLVITQQILKKWADGDDPEMQEIAKEEKSFVKDMFRNTVNEEKAWADYLFKEGSMIGLNARLLNNYVEWIANRRMKAIGLDPIYDQPLRNNPLPWTEHWLNSKGQQNAPQETEIESYVIGGIKQDVKGDSFAGFKL | not soluble
MTIRINNISLDINEDLSLLKNKVAKKLRMSKDEIGDIKIIKESLDARKKNLIKFNYCINIEHEDEEKIVARLNDKDVKIDKVNYDFDFNFGEKKLQHRPVVIGLGPAGLFAALLLAKKGFNPIVFERGEDVDSRTKTVEEFWRTGELNPESNVQFGEGGAGAFSDGKLTTRIKDTRCDYVLDALVRNGAPEEIIYKGKPHVGTDILKNVVKNIREEIKRHGGEVHFNSRFEGIIKKDNKLKGIKVNGEEVPCEVAILALGHSSRDTYEMLFNEGVFMKQKPFAIGVRIEHPQEIINLSQYGEKYANHPRLKAAEYRLAYQSKTLDRAVYSFCMCPGGVVVNASSEEKRLCVNGMSYHARDKENANSALVVTVGPNDFGGDHPLEGMKFQRHYEELAFKLGGGNYNTPVQLVGDFMKDRVTTKLGKVNPSVLSNGYRFEDLRKCLPSYVIDGLKEGITDFDRKIKGFGHSDSVLTGIETRTSAPVRIERNEKLQSISLEGLYPAGEGAGFAGGIVSAAVDGLKVAENIMKEYRVLEHHHHHH | not soluble
MGSDKIHHHHHHMNTLEKRQHEILTNPLHFCKKSGDFAKHSMSIKLSKNELFDVDFVTGIYFVEKGIVMKGTQIDDYIGYDQLLKPGDVCNFSSFMSSDLKRNIGAQLLSPSSSVITAVDRDFFIFMVEKHVSVEEFMLYQAKKEIMILQRRCLLNTLKVKDRVKHLIAAIGYEYGISNGDNIQIPQELSTTFLSKFMGITREYLSLTLSELKKEDYLLNTKIPVVINVEKLFNEIPYESLIL | not soluble
GMTSSFTDYCKFFNRILSEVQETQEQAIIKGAHLVSEAVMNGGRFYVFGSGHSHMIAEEIYNRAGGLALVTAILPPELMLHERPNKSTYLERIEGLSKSYLKLHQVTNKDVIMIISNSGRNTVPVEMAIESRNIGAKVIAMTSMKHSQKVTSRHKSGKKLYEYADVVLDNGAPVGDAGFQIANSEIYSGATSDSIGCFLAQALIVETLHLLVQQGFEPPVFKSSNVDGADLYNDKIFNEYVKW | soluble
MSLKLQASNVTNKNDPKSINSRVFIGNLNTALVKKSDVETIFSKYGRVAGCSVHKGYAFVQYSNERHARAAVLGENGRVLAGQTLDINMAGEPKPDR | soluble
MADNVAGNDRLIWIDLEMTGLDTDRDSIIEIATIVTDAQLNVLAEGPELAIAHSLETLEAMDEWNRNQHRRSGLWQRVLDSQVTHAQAEAQTVAFLGEWIRAGASPMCGNSICQDRRFLHRQMSRLERYFHYRNLDVSTIKELARRWAPAVASGFAKSSAHTALSDVRDSIDELRHYRQFMGTLGGDNGGGVQN | soluble
